Measured values taken from article PMC4752478, “Probing the Catalytic Mechanism of Vibrio harveyi GH20 β-N-Acetylglucosaminidase by Chemical Rescue” (PLoS ONE, 2016).
Where a name gives a salt, the structure may show the parent alone.

Legend:
[1] = test system: CC(=O)N[C@H]1[C@H](Oc2ccc([N+](=O)[O-])cc2)O[C@H](CO)[C@@H](O)[C@@H]1O; experiment: purified protein; conditions: no sodium formate, 100 mM sodium phosphate pH 7.0, 37°C
VhGlcNAcase = target: T1, VhGlcNAcase (Vibrio harveyi, UniProt D9ISE0); experiment: biochemical; conditions: read-out: Specific activity (nmol/min/μg) / 1 M HCOONa
T1 sequence (D9ISE0 1-642): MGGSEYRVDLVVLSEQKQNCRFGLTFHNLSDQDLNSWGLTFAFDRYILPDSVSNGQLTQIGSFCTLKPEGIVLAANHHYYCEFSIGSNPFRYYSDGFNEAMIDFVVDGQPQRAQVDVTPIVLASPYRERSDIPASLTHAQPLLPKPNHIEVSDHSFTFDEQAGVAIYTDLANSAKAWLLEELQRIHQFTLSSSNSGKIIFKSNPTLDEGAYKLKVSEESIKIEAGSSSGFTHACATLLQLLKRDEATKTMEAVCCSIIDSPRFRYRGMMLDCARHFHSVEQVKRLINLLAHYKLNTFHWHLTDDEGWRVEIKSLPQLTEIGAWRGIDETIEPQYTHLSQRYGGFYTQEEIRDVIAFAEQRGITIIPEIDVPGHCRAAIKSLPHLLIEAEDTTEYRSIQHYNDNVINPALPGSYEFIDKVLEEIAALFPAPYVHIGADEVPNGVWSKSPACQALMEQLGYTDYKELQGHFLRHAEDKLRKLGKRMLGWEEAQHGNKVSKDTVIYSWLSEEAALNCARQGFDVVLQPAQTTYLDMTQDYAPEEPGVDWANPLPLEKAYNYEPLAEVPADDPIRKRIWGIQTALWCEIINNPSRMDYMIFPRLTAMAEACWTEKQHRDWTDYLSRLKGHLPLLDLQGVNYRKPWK

Compound | Km [1] [µM] | kcat [1] [s⁻¹] | kcat/Km [1] [M⁻¹ s⁻¹] | activity at 1 M (VhGlcNAcase) [%]
VhGlcNAcase (Vibrio harveyi; D437A) | 390 ± 32 | 0.14 ± 0.01 | 360 | –
O=CO [sodium formate] | – | – | – | 80
